Primed or numbered codes have the meaning given here. Side chains are listed from the residue outwards. Ends that are not written are not given here. * marks the point of attachment. Biotin = O=C1N[C@H]2[C@H](CS[C@H]2CCCCC(=O)*)N1; PEG2(3) = PEG2 spacer carrying biotin on Lys; PEG2″ = not defined here; PEG = not defined here; PEG2(4) = PEG2 spacer
B1: TGLLQGRRDE RARPP KLTCLASYCWLFWTGIA (peptide)
peptide: TGLLQGRRDERARPPKLTCLASYCWLFWTGIA
B2: RK(PEG2-Biotin)APGKLTCLASYCWLFWTGIA (peptide)
peptide: RK([PEG2(3)-Biotin])APGKLTCLASYCWLFWTGIA
modifications: not fully specified (C-terminus); printed as RK(PEG2-Biotin)APGKLTCLASYCWLFWTGIA; cysteine pairing not given here
B3: TSGPFGFGGS SRAQG KLTCLASYCWLFWTGIA (peptide)
peptide: TSGPFGFGGSSRAQGKLTCLASYCWLFWTGIA
B4: RRAPGKLTCLASYCWLFWK(PEG2-Biotin)GIA (peptide)
peptide: RRAPGKLTCLASYCWLFWK([PEG2″-Biotin])GIA
modifications: not fully specified; printed as RRAPGKLTCLASYCWLFWK(PEG2-Biotin)GIA; cysteine pairing not given here
B5: QWQIAGQVLKRRAPA KLTCLASYCWLFWTGIA (peptide)
peptide: QWQIAGQVLKRRAPAKLTCLASYCWLFWTGIA
B6: RRAPGKLTCLASK(PEG2-Biotin)CWLFWTGIA (peptide)
peptide: RRAPGKLTCLASK([PEG2″-Biotin])CWLFWTGIA
modifications: not fully specified; printed as RRAPGKLTCLASK(PEG2-Biotin)CWLFWTGIA; cysteine pairing not given here
B7: RRAPGKLTCLK(PEG2-Biotin)SYCWLFWTGIA (peptide)
peptide: RRAPGKLTCLK([PEG2(3)-Biotin])SYCWLFWTGIA
modifications: cysteine pairing not given here
B8: RRAPGKLTCLASYCWLF EPGIA QPYAKSPTRN (peptide)
peptide: RRAPGKLTCLASYCWLFEPGIAQPYAKSPTRN
B9: RRAPGKLTCLASYCWLF WTGLA STLYKTYTRE (peptide)
peptide: RRAPGKLTCLASYCWLFWTGLASTLYKTYTRE
B10: TQWAQVGPRG RRAQG KLTCLASYCWLFWTGIA (peptide)
peptide: TQWAQVGPRGRRAQGKLTCLASYCWLFWTGIA
B11: AVDSLPLYGA RSAPS KLTCLASYCWLFWTGIA (peptide)
peptide: AVDSLPLYGARSAPSKLTCLASYCWLFWTGIA
modifications: not fully specified; cysteine pairing not given here
B12: RRAPGK(PEG2-Biotin)LTCLASYCWLFWTGIA (peptide)
peptide: RRAPGK([PEG2(3)-Biotin])LTCLASYCWLFWTGIA
modifications: not fully specified (bridges); printed as RRAPGK(PEG2-Biotin)LTCLASYCWLFWTGIA; cysteine pairing not given here
B13: RRAK(PEG2-Biotin)GKLTCLASYCWLFWTGIA (peptide)
peptide: RRAK([PEG2(4)-Biotin])GKLTCLASYCWLFWTGIA
modifications: not fully specified (C-terminus); printed as RRAK(PEG2-Biotin)GKLTCLASYCWLFWTGIA; cysteine pairing not given here
B14: RRAPGKLTCLASYCWLFWTGIA-PEG4 (peptide)
peptide: RRAPGKLTCLASYCWLFWTGIA
modifications: not fully specified; C-terminal PEG4
B15: QRAGRVARLH RRAPN KLTCLASYCWLFWTGIA (peptide)
peptide: QRAGRVARLHRRAPNKLTCLASYCWLFWTGIA
B16: RRAPGKLTCLASYCK(PEG2-Biotin)LFWTGIA (peptide)
peptide: RRAPGKLTCLASYCK([PEG2(3)-Biotin])LFWTGIA
modifications: not fully specified (C-terminus); printed as RRAPGKLTCLASYCK(PEG2-Biotin)LFWTGIA; cysteine pairing not given here
B17: WRAGLDESQR DRAPG KLTCLASYCWLFWTGIA (peptide)
peptide: WRAGLDESQRDRAPGKLTCLASYCWLFWTGIA
B18: RRAPGKLTCLASYCWLFWTGK(PEG2-Biotin)A (peptide)
peptide: RRAPGKLTCLASYCWLFWTGK([PEG2(3)-Biotin])A
modifications: not fully specified (C-terminus); printed as RRAPGKLTCLASYCWLFWTGK(PEG2-Biotin)A; cysteine pairing not given here
B19: PSGWAGWAPG RREPG KLTCLASYCWLFWTGIA (peptide)
peptide: PSGWAGWAPGRREPGKLTCLASYCWLFWTGIA
B20: GYRVPVGGLV RRAHG KLTCLASYCWLFWTGIA (peptide)
peptide: GYRVPVGGLVRRAHGKLTCLASYCWLFWTGIA
B21: compound A (peptide)
peptide: WSLCFKLTCAYL-NH2
modifications: cysteine pairing not given here
B22: TLWPWGGQGG RNAPG KLTCLASYCWLFWTGIA (peptide)
peptide: TLWPWGGQGGRNAPGKLTCLASYCWLFWTGIA
B23: LQLSYGEQRQ SRAPG KLTCLASYCWLFWTGIA (peptide)
peptide: LQLSYGEQRQSRAPGKLTCLASYCWLFWTGIA
B24: RRAPGKLTCLASYCWLF STGVA THANTTATAQ (peptide)
peptide: RRAPGKLTCLASYCWLFSTGVATHANTTATAQ
B25: RRAPGKLTCLASYCWLF WTGYA SGKPSRVYVI (peptide)
peptide: RRAPGKLTCLASYCWLFWTGYASGKPSRVYVI
B26: RRAPGKLTCLASYCWLF WTGWA VLARVPVGWT (peptide)
peptide: RRAPGKLTCLASYCWLFWTGWAVLARVPVGWT
B27: compound B (peptide)
peptide: PLKWTASGCRWLGCIQLARFAY-NH2
modifications: cysteine pairing not given here
B28: RRAPGKLTCK(PEG2-Biotin)ASYCWLFWTGIA (peptide)
peptide: RRAPGKLTCK([PEG2(3)-Biotin])ASYCWLFWTGIA
modifications: cysteine pairing not given here
B29: SRIRTVGPGSRSASGKLTCLASYCWLFWTGIA (peptide)
peptide: SRIRTVGPGSRSASGKLTCLASYCWLFWTGIA
B30: RRAPGKLTCLASYCWLF STPVA RKSLRRHQPT (peptide)
peptide: RRAPGKLTCLASYCWLFSTPVARKSLRRHQPT
modifications: not fully specified (C-terminus); cysteine pairing not given here
B31: RRAPGKLTCLASYCWLF WRGFA ERASEDTNQG (peptide)
peptide: RRAPGKLTCLASYCWLFWRGFAERASEDTNQG
B32: HLFGADWLGA RTAPG KLTCLASYCWLFWTGIA (peptide)
peptide: HLFGADWLGARTAPGKLTCLASYCWLFWTGIA
B33: RRAPGKLTCLASYCWLF WTGLS RYQWQAQEDV (peptide)
peptide: RRAPGKLTCLASYCWLFWTGLSRYQWQAQEDV
B34: RRAPGKLTCLASYCWK(PEG2-Biotin)FWTGIA (peptide)
peptide: RRAPGKLTCLASYCWK([PEG2(3)-Biotin])FWTGIA
modifications: not fully specified (C-terminus); printed as RRAPGKLTCLASYCWK(PEG2-Biotin)FWTGIA; cysteine pairing not given here
B35: Glu(Biotinyl-PEG)-RAPGKLTCLASYCWLFWTGIA (peptide)
peptide: E([PEG-Biotin])RAPGKLTCLASYCWLFWTGIA
modifications: not fully specified; printed as Glu(Biotinyl-PEG)-RAPGKLTCLASYCWLFWTGIA; cysteine pairing not given here; reading uncertain
B36: RRAPGKK(PEG2-Biotin)TCLASYCWLFWTGIA (peptide)
peptide: RRAPGKK([PEG2(3)-Biotin])TCLASYCWLFWTGIA
modifications: cysteine pairing not given here
B37: compound 3 (peptide)
peptide: RRAPGKLQCLASYCWLFWTGIA-NH2
modifications: not fully specified (bridges); cysteine pairing not given here
B38: RRK(PEG2-Biotin)PGKLTCLASYCWLFWTGIA (peptide)
peptide: RRK([PEG2″-Biotin])PGKLTCLASYCWLFWTGIA
modifications: not fully specified; printed as RRK(PEG2-Biotin)PGKLTCLASYCWLFWTGIA; cysteine pairing not given here
B39: RRAPGKLTCLASYCWLF QTGWA YWGYRQHPGS (peptide)
peptide: RRAPGKLTCLASYCWLFQTGWAYWGYRQHPGS
B40: RRAPGKLTCLASYCWLK(PEG2-Biotin)WTGIA (peptide)
peptide: RRAPGKLTCLASYCWLK([PEG2″-Biotin])WTGIA
modifications: not fully specified; printed as RRAPGKLTCLASYCWLK(PEG2-Biotin)WTGIA; cysteine pairing not given here
B41: RRAPGKLTCLASYCWLF WTGFA FRVGLASSLY (peptide)
peptide: RRAPGKLTCLASYCWLFWTGFAFRVGLASSLY
B42: RRAPGKLTCLASYCWLF WTGWC RDTASHACDS (peptide)
peptide: RRAPGKLTCLASYCWLFWTGWCRDTASHACDS
B43: RRAPGKLTCLASYCWLFWTGIK(PEG2-Biotin) (peptide)
peptide: RRAPGKLTCLASYCWLFWTGIK([PEG2(3)-Biotin])
modifications: not fully specified (C-terminus); printed as RRAPGKLTCLASYCWLFWTGIK(PEG2-Biotin); cysteine pairing not given here
B44: VGSGDERALP SRASG KLTCLASYCWLFWTGIA (peptide)
peptide: VGSGDERALPSRASGKLTCLASYCWLFWTGIA

molecular target: human Factor IXa (human, UniProt P00740 47-191; P00740 227-461); test: cell-based or functional assay

Binder	EC50 [µM], FXa generation assay [µM]	EC50 [µM], FXa generation assay with hFIXa [µM]
B1	< 0.5	
B2	< 0.5	
B3	> 1	
B4	< 0.5	
B5	< 0.5	
B6	< 0.5	
B7	< 0.5	
B8	> 1	
B9	> 1	
B10	< 0.5	
B11	< 0.5	
B12	< 0.5	
B13	> 1	
B14	< 0.5	
B15	> 1	
B16	< 0.5	
B17	< 0.5	
B18	< 0.5	
B19	> 1	
B20	> 1	
B21		> 100
B22	> 1	

Binder	EC50 [µM], FXa generation assay [µM]	EC50 [µM], FXa generation assay with hFIXa [µM]
B23	< 0.5	
B24	> 1	
B25	> 1	
B26	< 0.5	
B27		> 1
B28	< 0.5	
B29	< 0.5	
B30	> 10	
B31	> 1	
B32	> 1	
B33	> 1	
B34	> 1	
B35	> 4	
B36	> 5	
B37		< 0.5
B38	< 0.5	
B39	< 0.5	
B40	> 1	
B41	< 0.5	
B42	> 1	
B43	< 0.5	
B44	< 0.5	

Reference: patent US20140303084A1 (Biogen, published 2014)
